Laboratory results as given in EP4810058A1 (Shanghai Henlius Biotech, Inc., dated 2026).

Key:
HER2-Fc protein = target: T1, HER2-Fc protein (human, UniProt P04626 23-652); assay: SPR (Biacore CM5), antibody immobilized by amine coupling, HER2-Fc injected
T1 construct: Bought reagent (Sino Biological, PA, USA, Cat. No. 10004-H02H, LC10JA1203); not shown: Fc part of the bought fusion

[1] = target: T2, HER2 on gastric cancer cells NCI-N87 and SNU216 (human, UniProt P04626 23-1255); assay: HER2 internalization assay on NCI-N87 and SNU216 cells, pHrodo dye, flow cytometry
T2 construct: whole, on cells; also called CD340; erbB2

B1: Second anti-HER2 antibody (antibody, human IgG1, kappa, V domains shown)
VH: EVQLVESGGGLVQPGGSLRLSCAASGFTFSSYTMSWVRQAPGKGLEWVAYISAGGGSTYYPDTVKGRFTISRDNAKNSLYLQMNSLRAEDTAVYYCARHLGGTASFDYWGQGTLVTVSS
VL: DIQMTQSPSSLSASVGDRVTITCLASQTIGTWLAWYQQKPGKAPKLLIYVATSLADGVPSRFSGSGSGTDFTLTISSLQPEDFATYYCQQNAYAPWTFGQGTKVEIKR
notes: also called second antibody; hz1E11-133
binding result (HER2-Fc protein): binds | binding result [1]: binds
